# Measurements as given in patent publication US20230012428A1 (JIANGSU HENGRUI MEDICINE, published 2023).
# Read-outs that look alike come from different tables or passages of the source.
# Experiments:
# hPD-L1-His [1] = target: T1, hPD-L1-His (human, UniProt Q9NZQ7 19-239); test: ELISA, PD-L1-his coated on plate
# T1 construct: Bought; also called Human PD-L1-his; Human PD-L1; not shown: His tag
# Cyno PD-L1-His [2] = target: T2, Cyno PD-L1-His (cyno, UniProt G7PSE7 19-239); test: ELISA, PD-L1-his coated on plate
# T2 construct: Bought; not shown: His tag
# mPD-L1 [3] = target: T3, mPD-L1 (mouse, UniProt Q9EP73 19-238); test: ELISA, PD-L1-his coated on plate
# T3 construct: Bought; also called Mouse PD-L1-his; Mouse PD-L1
# [4] = target: T4, PD-L1-Fc (prepared in-house) (human, UniProt Q9NZQ7 19-238, limits assumed); test: blocking ELISA, PD-L1-Fc coated, competitor biotin-labeled B7-1
# T4 construct: Prepared in-house; also called human PD-L1-Fc; not shown: Fc
# [5] = target: T4, PD-L1-Fc (prepared in-house); test: blocking ELISA, PD-L1-Fc coated, competitor biotin-labeled PD-1
# hPD-L1-His [6] = target: T1, hPD-L1-His; test: SPR (Biacore T200), binder captured on Protein A chip, antigen in flow
# Cyno PD-L1-His [7] = target: T2, Cyno PD-L1-His; test: as above
# mPD-L1 [8] = target: T3, mPD-L1; test: as above
# [9] = target: T5, natural CD47 on the surface of human red blood cells (human, UniProt Q08722 19-323); test: flow cytometry on human red blood cells, 10 µg/ml, Alexa 488 goat anti-human IgG secondary antibody, geometric mean
# T5 construct: whole, on cells; also called CD47 on the surface of red blood cells
# [10] = target: T6, CD47 extracellular domain and human IgG1Fc fusion protein (CD47-ECD-Fc) (human); test: blocking ELISA, CD47-Fc coated, competitor biotin-labeled SIRPα-his
# T6 construct: also called CD47-Fc
# [11] = target: T7, Human CD47-his (CD47-ECD-His) (human, UniProt Q08722 19-139, limits assumed); test: ELISA, CD47-his coated on plate
# T7 construct: also called hCD47; free human CD47 protein
# Cyno CD47-his [12] = target: T8, Cyno CD47-his (cyno, UniProt A0A2K5X523 19-139); test: ELISA, CD47-his coated on plate
# T8 construct: extracellular domain; not shown: His tag
# [13] = target: T7, Human CD47-his (CD47-ECD-His); test: SPR (Biacore T200), binder captured on Protein A chip, antigen in flow
# Cyno CD47-his [14] = target: T8, Cyno CD47-his; test: as above
# [15] = target: T7, Human CD47-his (CD47-ECD-His); test: ELISA, CD47-his coated on plate; remark: listed apart in the source
# Cyno CD47-his [16] = target: T8, Cyno CD47-his; test: ELISA, CD47-his coated on plate; remark: listed apart in the source
binder,measurement,setting,value
"Anti PD-L1 IgG4 antibody h1830 (antibody, V domains shown, also called PD-L1 monoclonal antibody h1830) VH: QVQLQESGPGLVKPSQTLSLTCTVSGGSISDGSAYWSWIRQHPGKGLEYIGFISRAGSTYNTPSLKGRVTISRDTSKNQFSLKLSSVTAADTAVYYCARSGGWLAPFDYWGRGTLVTVSS VL: DIVMTQSPDSLAVSLGERATINCKSSQSLFYHSNQKHSLAWYQQKPGQPPKLLIYGASTRESGVPDRFSGSGSGTDFTLTISSLQAEDVAVYYCQQYYGYPYTFGGGTKVEIKR",EC50,hPD-L1-His [1],0.131 µg/mL
same,EC50,Cyno PD-L1-His [2],0.23 µg/mL
same,EC50,mPD-L1 [3],0.0289 µg/mL
same,IC50,[4],0.0752 µg/mL
same,IC50,[5],0.035 µg/mL
same,Kd,hPD-L1-His [6],0.466 nM
same,Kd,Cyno PD-L1-His [7],0.498 nM
same,Kd,mPD-L1 [8],97.5 nM
same,binding result,[9],no binding (tested: 10 µg/ml)
"Anti-CD47 antibody hu5F9 (antibody, human IgG4 S228P, kappa, V domains shown, Control antibody) VH: QVQLVQSGAEVKKPGASVKVSCKASGYTFTNYNMHWVRQAPGQRLEWMGTIYPGNDDTSYNQKFKDRVTITADTSASTAYMELSSLRSEDTAVYYCARGGYRAMDYWGQGTLVTVSS VL: DIVMTQSPLSLPVTPGEPASISCRSSQSIVYSNGNTYLGWYLQKPGQSPQLLIYKVSNRFSGVPDRFSGSGSGTDFTLKISRVEAEDVGVYYCFQGSHVPYTFGQGTKLEIKR",IC50,[10],0.263 µg/mL
"PD-L1 antibody h1831 (antibody, human IgG4 S228P, kappa, V domains shown) VH: QVQLVQSGAEVKKPGASVKVSCKASGYTFTSYWMHWVRQAPGQGLEWMGRITPSSGFAMYNEKFKNRVTMTRDTSTSTVYMELSSLRSEDTAVYYCARGGSSYDYFDYWGQGTTVTVSS VL: DIVLTQSPASLAVSPGQRATITCRASESVSIHGTHLMHWYQQKPGQPPKLLIYAASNLESGVPARFSGSGSGTDFTLTINPVEAEDTANYYCQQSFEDPLTFGQGTKLEIKR",EC50,hPD-L1-His [1],0.129 µg/mL
same,EC50,Cyno PD-L1-His [2],0.222 µg/mL
same,IC50,[4],0.0494 µg/mL
same,IC50,[5],0.0266 µg/mL
same,Kd,hPD-L1-His [6],0.0806 nM
same,Kd,Cyno PD-L1-His [7],0.0919 nM
same,binding result,mPD-L1 [8],no binding
same,binding result,[9],no binding (tested: 10 µg/ml)
"HRP00052 (antibody, V domains shown) VH: QVQLVQSGAEVKKPGASVKVSCKASGYTFTSYWMHWVRQAPGQGLEWMGRIGPNSGFTSYNEKFKNRVTMTRDTSTSTVYMELSSLRSEDTAVYYCARGGSSYDYFDYWGQGTTVTVSS VL: DIVLTQSPASLAVSPGQRATITCRASESVSIHGTHLMHWYQQKPGQPPKLLIYAASNLESGVPARFSGSGSGTDFTLTINPVEAEDTANYYCQQSFEDPLTFGQGTKLEIKR",EC50,hPD-L1-His [1],0.163 µg/mL
same,EC50,Cyno PD-L1-His [2],0.196 µg/mL
same,IC50,[4],0.0307 µg/mL
same,IC50,[5],0.032 µg/mL
same,Kd,hPD-L1-His [6],0.144 nM
same,Kd,Cyno PD-L1-His [7],0.151 nM
"Anti-CD47 antibody Hu167-IgG4 AA (antibody, V domains shown, Control antibody, prepared according to WO2018095428A1; also called Hul67 IgG4AA) VH: QVQLVQSGAEVKKPGASVKVSCKASGYTFTSYWMHWVRQAPGQGLEWMGNIDPSDSETHYNQKFKDRVTMTRDTSISTAYMELSRLRSDDTAVYYCARWGYLGRSAMDYWGQGTTVTVSS VL: DVQITQSPSSLSASVGDRVTITCRTSKSISKFLAWYQQKPGKAPKLLIYSGSTLQSGVPSRFSGSGSGTDFTLTISSLQPEDFATYYCQQHNEYPWTFGGGTKVEIKR",EC50,[11],0.0703 µg/mL
same,EC50,Cyno CD47-his [12],0.0317 µg/mL
same,Kd,[13],0.653 nM
same,Kd,Cyno CD47-his [14],1.09 nM
"h1831-19-S58 (bispecific antibody, human IgG4 S228P, kappa, Anti-PD-L1 IgG4 antibody h1831 with SIRPγ variant S58, GS19 linker; also called PD-L1-CD47 bifunctional fusion protein) heavy: not shown light: DIVLTQSPASLAVSPGQRATITCRASESVSIHGTHLMHWYQQKPGQPPKLLIYAASNLESGVPARFSGSGSGTDFTLTINPVEAEDTANYYCQQSFEDPLTFGQGTKLEIKRTVAAPSVFIFPPSDEQLKSGTASVVCLLNNFYPREAKVQWKVDNALQSGNSQESVTEQDSKDSTYSLSSTLTLSKADYEKHKVYACEVTHQGLSSPVTKSFNRGEC",EC50,[11],0.0469 µg/mL
same,EC50,Cyno CD47-his [12],0.06 µg/mL
same,EC50,hPD-L1-His [1],0.0947 µg/mL
same,EC50,Cyno PD-L1-His [2],0.237 µg/mL
same,IC50,[4],0.16 µg/mL
same,IC50,[5],0.122 µg/mL
same,Kd,[13],1.77 nM
same,Kd,Cyno CD47-his [14],1.94 nM
same,Kd,hPD-L1-His [6],0.0825 nM
same,Kd,Cyno PD-L1-His [7],0.0891 nM
same,binding result,mPD-L1 [8],no binding
"h1831K-19-S37 (bispecific antibody, human IgG4 S228P, kappa, h1831K IgG4 (h1831 with light chain N53K) with SIRPγ variant S37, GS19 linker; also called h831K-19-S37; PD-L1-CD47 bifunctional fusion protein) heavy: not shown light: DIVLTQSPASLAVSPGQRATITCRASESVSIHGTHLMHWYQQKPGQPPKLLIYAASKLESGVPARFSGSGSGTDFTLTINPVEAEDTANYYCQQSFEDPLTFGQGTKLEIKRTVAAPSVFIFPPSDEQLKSGTASVVCLLNNFYPREAKVQWKVDNALQSGNSQESVTEQDSKDSTYSLSSTLTLSKADYEKHKVYACEVTHQGLSSPVTKSFNRGEC",EC50,[15],0.0609 µg/mL
same,EC50,Cyno CD47-his [16],0.033 µg/mL
same,EC50,hPD-L1-His [1],0.046 µg/mL
same,EC50,Cyno PD-L1-His [2],0.0972 µg/mL
same,IC50,[10],0.252 µg/mL
same,Kd,[13],1.25 nM
same,Kd,Cyno CD47-his [14],1.48 nM
same,Kd,hPD-L1-His [6],0.0563 nM
same,Kd,Cyno PD-L1-His [7],0.0493 nM
same,binding result,mPD-L1 [8],no binding
"h1831-19-S37 (bispecific antibody, human IgG4 S228P, kappa, h1831 IgG4 with SIRPγ variant S37, GS19 linker; also called PD-L1-CD47 bifunctional fusion protein) heavy: not shown light: DIVLTQSPASLAVSPGQRATITCRASESVSIHGTHLMHWYQQKPGQPPKLLIYAASNLESGVPARFSGSGSGTDFTLTINPVEAEDTANYYCQQSFEDPLTFGQGTKLEIKRTVAAPSVFIFPPSDEQLKSGTASVVCLLNNFYPREAKVQWKVDNALQSGNSQESVTEQDSKDSTYSLSSTLTLSKADYEKHKVYACEVTHQGLSSPVTKSFNRGEC",Kd,[13],1.16 nM
same,Kd,Cyno CD47-his [14],1.39 nM
same,Kd,hPD-L1-His [6],0.0529 nM
same,Kd,Cyno PD-L1-His [7],0.0471 nM
same,binding result,mPD-L1 [8],no binding
"h1831-19-S79 (bispecific antibody, human IgG4 S228P, kappa, h1831 IgG4 with SIRPγ variant S79, GS19 linker; also called PD-L1-CD47 bifunctional fusion protein) heavy: not shown light: DIVLTQSPASLAVSPGQRATITCRASESVSIHGTHLMHWYQQKPGQPPKLLIYAASNLESGVPARFSGSGSGTDFTLTINPVEAEDTANYYCQQSFEDPLTFGQGTKLEIKRTVAAPSVFIFPPSDEQLKSGTASVVCLLNNFYPREAKVQWKVDNALQSGNSQESVTEQDSKDSTYSLSSTLTLSKADYEKHKVYACEVTHQGLSSPVTKSFNRGEC",EC50,hPD-L1-His [1],0.0976 µg/mL
same,EC50,Cyno PD-L1-His [2],0.214 µg/mL
same,IC50,[4],0.113 µg/mL
same,IC50,[5],0.0723 µg/mL
same,Kd,[13],3.83 nM
same,Kd,Cyno CD47-his [14],4.63 nM
same,Kd,hPD-L1-His [6],0.0874 nM
same,Kd,Cyno PD-L1-His [7],0.121 nM
same,binding result,mPD-L1 [8],no binding
